{"source": "paper doi:10.1101/2024.02.18.580885", "about": "(bioRxiv, 2024)", "proteins": {"B1": {"name": "TFIP11 N-TER (N-terminal region of Tuftelin Interacting Protein 11) (domain or fragment, human, UniProt Q9UBB9 1-350, looked up)", "chain": "MSLSHLYRDGEGRIDDDDDERENFEITDWDLQNEFNPNRQRHWQTKEEATYGVWAERDSDDERPSFGGKRARDYSAPVNFISAGLKKGAAEEAELEDSDDEEKPVKQDDFPKDFGPRKLKTGGNFKPSQKGFAGGTKSFMDFGSWERHTKGIGQKLLQKMGYVPGRGLGKNAQGIINPIEAKQRKGKGAVGAYGSERTTQSMQDFPVVDSEEEAEEEFQKELSQWRKDPSGSKKKPKYSYKTVEELKAKGRISKKLTAPQKELSQVKVIDMTGREQKVYYSYSQISHKHNVPDDGLPLQSQQLPQSGKEAKAPGFALPELEHNLQLLIDLTEQEIIQNDRQLQYERDMVV"}}, "target": "the molecule itself", "assay": "dynamic light scattering", "data": [{"protein": "B1", "values": [{"measurement": "binding result", "value": "binds"}]}]}
